First the molecules themselves.
T1: human GLP-1 receptor (human), P43220
T1 chain: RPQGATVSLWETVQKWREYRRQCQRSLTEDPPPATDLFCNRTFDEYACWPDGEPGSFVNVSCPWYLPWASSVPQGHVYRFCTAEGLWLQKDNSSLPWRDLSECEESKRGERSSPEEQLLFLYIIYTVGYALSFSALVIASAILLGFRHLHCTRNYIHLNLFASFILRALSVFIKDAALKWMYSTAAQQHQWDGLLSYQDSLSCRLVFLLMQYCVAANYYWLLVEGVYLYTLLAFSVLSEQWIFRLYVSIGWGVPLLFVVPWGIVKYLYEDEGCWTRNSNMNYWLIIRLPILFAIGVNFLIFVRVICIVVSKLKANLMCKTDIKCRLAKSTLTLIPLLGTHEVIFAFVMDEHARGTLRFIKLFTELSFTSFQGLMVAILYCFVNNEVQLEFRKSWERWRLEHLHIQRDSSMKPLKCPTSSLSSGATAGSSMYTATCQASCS

Here are results for 34 molecules from patent US20050164925A1 (JOSEPH ANTHONY JAKUBOWSKI AND THURMAN DWIGHT MC KINNEY, published 2005).

“And” between values parts separate entries of the source, which are not always exact repeats. Identical values can stand only once. Where no end group is shown, it is not given here.

The first experiment deals with T1, human GLP-1 receptor (human), P43220. Kind of experiment: cell-based or functional assay.
Settings: not given
HVEGTFTSDVSSYLEEQAAKAFIAWLVKGRG-OH [Val^8-Glu^22-Ala^27-GLP-1(7-37)OH] showed an EC50 Relative to Val^8-GLP-1(7-37)OH (relative to Val^8-GLP-1(7-37)OH) of 2.2. HVEGTFTSDVSIYLEEQAAKEFIAWLVKGRG-OH [Val^8-Ile^18-Glu^22-GLP-1(7-37)OH] had an EC50 Relative to Val^8-GLP-1(7-37)OH (relative to Val^8-GLP-1(7-37)OH) of 4. Same read-out and setting: then HVEGTFTSDYSSYLEEQAAKEFIAWLVKGRG-OH [Val^8-Tyr^16-Glu^22-GLP-1(7-37)OH], with 3.6 and 3.8; and HVEGTFTSDVSSYLEEQAAKEFIAWLVKGRH-OH [Val^8-Glu^22-His^37-GLP-1(7-37)OH], with 4.7. The same measure, in the same setting: with HVEGTFTSDWSSYLEEQAAKEFIAWLIKGRG-OH [Val^8-Trp^16-Glu^22-Ile^33-GLP-1(7-37)OH] the figure was 4.1; with HVEGTFTSDISSYLEEQAAKEFIAWLVKGRG-OH [Val^8-Ile^16-Glu^22-GLP-1(7-37)OH], 3.3. With HVEGTFTSDWSSYLEEQAVKEFIAWLIKGRG-OH [Val^8-Trp^16-Glu^22-Val^25-Ile^33-GLP-1(7-37)OH], the EC50 Relative to Val^8-GLP-1(7-37)OH (relative to Val^8-GLP-1(7-37)OH) was found to be 5. Still for that read-out and setting: then HVEGTFTSDVSYYLEEQAAKEFIAWLVKGRG-OH [Val^8-Tyr^18-Glu^22-GLP-1(7-37)OH], with 5.1 and 5.9. The same measure, in the same setting: then HVDGIFTSDYSSYLEEQAAKEFIAWLVKGRG-OH [Val^8-Asp^9-Ile^11-Tyr^16-Glu^22-GLP-1(7-37)OH], with 4.3. On the same count and under the same terms, then HVEGTFTSDFSSYLEEQAAKEFIAWLVKGRG-OH [Val^8-Phe^16-Glu^22-GLP-1(7-37)OH], with 2.3; and HVEGTFTSDVSSYLEEQAVKEFIAWLVKGRG-OH [Val^8-Glu^22-Val^25-GLP-1(7-37)OH], with 4.7 and 2.9; and HVEGTWTSDVSSYLEEQAAKEFIAWLVKGRG-OH [Val^8-Trp^12-Glu^22-GLP-1(7-37)OH], with 1.7. HVEGTFTSDVSSWLEEQAAKEFIAWLVKGRG-OH [Val^8-Trp^19-Glu^22-GLP-1(7-37)OH] showed an EC50 Relative to Val^8-GLP-1(7-37)OH (relative to Val^8-GLP-1(7-37)OH) of 3.2. Same read-out and setting: with HVEGTFTSDVSSYLEEQAVKEFIAWLIKGRG-OH [Val^8-Glu^22-Val^25-Ile^33-GLP-1(7-37)OH] the figure was 4.9 and 5.8 and 6.7; with HVEGTFTSDWSSYLEEQAAKEFIAWLVKGRG-OH [Val^8-Trp^16-Glu^22-GLP-1(7-37)OH], 4.9 and 4.6; with HVEGTFTSDVSSYLEEQALKEFIAWLVKGRG-OH [Val^8-Glu^22-Leu^25-GLP-1(7-37)OH], 2.8. Same read-out and setting: then HVEGTFTSDVSKYLEEQAAKEFIAWLVKGRG-OH [Val^8-Lys^18-Glu^22-GLP-1(7-37)OH], with 2.5; and HVEGTFTSDVSSYLEGQALKEFIAWLVKGRG-OH [Val^8-Leu^25-GLP-1(7-37)OH], with 0.5.

Turning to HVEGTYTSDVSSYLEEQAAKEFIAWLVKGRG-OH [Val^8-Tyr^12-Glu^22-GLP-1(7-37)OH], the EC50 Relative to Val^8-GLP-1(7-37)OH (relative to Val^8-GLP-1(7-37)OH) is 2.7.

HVEGTFTSDVSSFLEEQAAKEFIAWLVKGRG-OH [Val^8-Phe^19-Glu^22-GLP-1(7-37)OH] displayed an EC50 Relative to Val^8-GLP-1(7-37)OH (relative to Val^8-GLP-1(7-37)OH) of 1.5.

In turn, HVEGTFTSDVSSYFEEQAAKEFIAWLVKGRG-OH [Val^8-Phe^20-Glu^22-GLP-1(7-37)OH] gave an EC50 Relative to Val^8-GLP-1(7-37)OH (relative to Val^8-GLP-1(7-37)OH) of 2.7. Same read-out and setting: then HVEGTFTSDLSSYLEEQAAKEFIAWLVKGRG-OH [Val^8-Leu^16-Glu^22-GLP-1(7-37)OH], with 4.3; and HVEGTFTSDYSSFLEGQAAKEFIAWLVKGRG-OH [Val^8-Tyr^16-Phe^19-GLP-1(7-37)OH], with 2.8.

As to HVEGTFTSDYSSWLEEQAAKEFIAWLVKGRG-OH [Val^8-Tyr^16-Trp^19-Glu^22-GLP-1(7-37)OH], the EC50 Relative to Val^8-GLP-1(7-37)OH (relative to Val^8-GLP-1(7-37)OH) was found to be 3.5. On the same count and under the same terms, then HVEGTFTSDVSWYLEEQAAKEFIAWLVKGRG-OH [Val^8-Trp^18-Glu^22-GLP-1(7-37)OH], with 3.2 and 6.6; and HVEGTFTSDLSSYLEGQAAKEFIAWLVKGRG-OH [Val^8-Leu^16-GLP-1(7-37)OH], with 1.1; and HVEGTFTSDVSSYLEEQAAKEFIAWLIKGRG-OH [Val^8-Glu^22-Ile^33-GLP-1(7-37)OH], with 4.7 and 3.8 and 3.4. As for HVEGTFTSDYSSYLEGQAAKEFIAWLVKGRG-OH [Val^8-Tyr^16-GLP-1(7-37)OH], the EC50 Relative to Val^8-GLP-1(7-37)OH (relative to Val^8-GLP-1(7-37)OH) was 2.5. Still for that read-out and setting: with HVEGTFTSDWSSYLEEQAVKEFIAWLVKGRG-OH [Val^8-Trp^16-Glu^22-Val^25-GLP-1(7-37)OH] the figure was 4.4; with HVEGTFTSDVSSYLEGQAAKEFIEWLVKGRG-OH [Val^8-Glu^30-GLP-1(7-37)OH], 0.7; with HVEGTYTSDYSSYLEGQAAKEFIAWLVKGRG-OH [Val^8-Tyr^12-Tyr^16-GLP-1(7-37)OH], 1.5.

Another experiment has as its target human GLP-1 receptor (human, UniProt P43220 24-463). Kind of experiment: cell-based or functional assay.
Settings: not given
Regarding HVEGTYTSDVSSYLEGQAAKEFIAWLVKGX (C-terminal amide (Xaa at position 37 is -NH2)) [Val^8-Tyr^12-GLP-1(7-36)NH2], the “EC50 Relative to Val^8-GLP-1(7-37)OH” value is 1.1 relative to Val^8-GLP-1(7-37)OH.

A further experiment deals with T2, human GLP-1 receptor (Homo sapiens, UniProt P43220).
T2 construct: expressed in transfected cells; host or cells: HEK-293 Aurora CRE-BLAM cells
Kind of experiment: In vitro potency assay (CRE-BLAM reporter, GLP-1 receptor signaling). It counts as cell-based. The note with it: in vitro potency relative to Val^8-GLP-1(7-37)OH. The text has this: The extent of the induction of cAMP levels can then be measured using a cAMP response element which drives the expression of a reporter gene such as luciferase or beta lactamase.
These HEK-293 cells have stably integrated a DNA vector having a cAMP response element (CRE) driving expression of the β-lactamase (BLAM) gene.
The day after seeding, the medium is replaced with plasma free medium.
With Val^8-Glu^22-GLP-1(7-37)OH, the “potency higher than Val^8-GLP-1(7-37)OH” value was “approximately 3 fold”. Turning to Exendin-4, the “potency higher than Val^8-GLP-1(7-37)OH” value is reported as “approximately 5 fold”.
